According to the supplement of paper PMC10724198:

Columns and labels:
Saccharomyces cerevisiae [1] = assay: protein stability index of tFT-peptide fusion in deletion strain of DAS1 (PSI (0-1 scale)); higher = more stable (slower turnover)
Procedure: (§1)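 MPS profiling in S. cerevisiae of two library types built from selected 12-aa C-degron peptides (IN1, IN2, LN1, LN3, VN2, R1-R5, W1-W3, Atg1 and Rpa12 C-termini): saturation mutagenesis libraries and C-terminal +1 capping libraries (13 aa). Each peptide is fused to the C-terminus of a sfGFP-mCherry timer, after a GGGS linker. Cells are FACS-sorted into 8 mCherry/sfGFP bins and sequenced. PSI runs from 0 (unstable) to 1 (stable), measured once in wild type and in the das1Δ or doa10Δ background.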

Saccharomyces cerevisiae [2] = assay: protein stability index of tFT-peptide fusion in wild type (PSI (0-1 scale)); higher = more stable (slower turnover); conditions: genetic background: wild type
Procedure: as §1
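For protein stability index of tFT-peptide fusion in deletion strain of DAS1 in this document: PSI is a weighted mean of each variant's read distribution over the sorted stability bins, computed only for variants having over 10 reads in total.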
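For protein stability index of tFT-peptide fusion in wild type in this document: PSI derived as read-weighted mean over the 8 sorting bins, only variants exceeding 10 total reads kept, mCherry placed adjacent to the peptide and sfGFP distal.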

Sequence	protein stability index (Saccharomyces cerevisiae [1])	protein stability index (Saccharomyces cerevisiae [2])
ARWRVGNWRGAS	0.678	0.684
ARWRVGPWRGAS	0.68	0.577
ARWRVGRWRGAS	0.688	0.533
ARWRVTLWRGAS	0.692	0.382
ARWSVGLWRGAS	0.692	0.448
ATWRVGLWRGAS	0.685	0.487
CGSCGYKFRTNN	0.687	0.265
CISCGYKFRTNN	0.725	0.211
CTSCGFKFRTNN	0.697	0.486
CTSCGMKFRTNN	0.715	0.304
CTSCGYKFCTNN	0.698	0.377
CTSCGYKFPTNN	0.728	0.71
CTSCGYKFRCNN	0.695	0.487
CTSCGYKFRINN	0.721	0.233
CTSCGYKFRLNN	0.701	0.35
CTSCGYKFRTDN	0.653	0.65
CTSCGYKFRTNE	0.685	0.726
CTSCGYKFRTNM	0.731	0.156
CTSCGYKFRTNNA	0.697	0.698
CTSCGYKFRTNNE	0.711	0.709
CTSCGYKFRTNNV	0.69	0.684
CTSCGYKYRTNN	0.674	0.295

Sequence	protein stability index (Saccharomyces cerevisiae [1])	protein stability index (Saccharomyces cerevisiae [2])
CTSCGYMFRTNN	0.682	0.357
CTSCHYKFRTNN	0.64	0.26
CVVYLSCVACIN	0.0323	0.0137
DRWRVGLWRGAS	0.657	0.413
DTSCGYKFRTNN	0.68	0.241
FAMRWTFRYWVN	0.476	0.0656
FKILRQKMNHQN	0.672	0.168
FSDRWTFRYWVN	0.605	0.095
FSMGWTFRYWVN	0.575	0.0807
FSMLWTFRYWVN	0.346	0.0376
FSMRLTFRYWVN	0.401	0.0555
FSMRWQFRYWVN	0.53	0.0795
FSMRWTCRYWVN	0.515	0.0505
FSMRWTFEYWVN	0.448	0.0782
FSMRWTFRGWVN	0.605	0.313
FSMRWTFRYIVN	0.475	0.202
FSMRWTFRYWHN	0.686	0.149
FSMRWTFRYWVNF	0.523	0.076
FSMRWTFRYWVNH	0.559	0.106
FSMRWTFRYWVNK	0.532	0.522
FSMRWTFRYWVNR	0.562	0.559
FSMRWTFRYWVNS	0.542	0.194
